Reference: the Human Domainome abundance scans (Beltran et al. 2025)
± gives the uncertainty stated by the source.

B1: Gamma-crystallin D, residues 90 to 170; numbered along this chain, P07320 (parent)
chain: IRLYEREDYRGQMIEFTEDCSCLQDRFRFNEIHSLNVLEGSWVLYELSNYRGRQYLLMPGDYRRYQDWGATNARVGSLRRV

Variants of: B1
Experiment: abundance fitness (aPCA) (normalised: wild type 0, dead -1); higher = more abundant; growth selection in yeast, the domain comes from the species named
Details: Homo sapiens

Abundance fitness of substitutions, site by site:
Q12: E -0.105 ± 0.11; D -0.019 ± 0.14; Y 0.007 ± 0.19; F -0.192 ± 0.17; A -0.055 ± 0.076; H 0.021 ± 0.16; P 0 ± 0.073; G 0.04 ± 0.066; L -0.173 ± 0.075; I -0.061 ± 0.17; M 0.062 ± 0.14; K 0.052 ± 0.23; V 0.1 ± 0.089; T -0.041 ± 0.096; W -0.176 ± 0.12; C -0.352 ± 0.24; S -0.008 ± 0.079; N 0.102 ± 0.19
F27: N -0.086 ± 0.5; C -0.031 ± 0.12; V -0.092 ± 0.077; W -0.103 ± 0.095; P 0.103 ± 0.088; K -0.009 ± 0.15; R -0.126 ± 0.058; D 0.012 ± 0.16; T -0.09 ± 0.15; L -0.105 ± 0.074; I -0.035 ± 0.19; Y -0.048 ± 0.12; G -0.106 ± 0.06; A -0.056 ± 0.11; M -0.129 ± 0.21; E 0.065 ± 0.064; S 0.011 ± 0.089; H -0.343 ± 0.13
D19: Y -0.155 ± 0.11; C -0.065 ± 0.19; E 0.035 ± 0.13; S -0.115 ± 0.11; W -0.108 ± 0.11; V -0.087 ± 0.075; N -0.058 ± 0.29; T 0.039 ± 0.11; P -0.003 ± 0.091; Q 0.041 ± 0.16; K -0.144 ± 0.18; L -0.169 ± 0.085; F 0.004 ± 0.15; R -0.129 ± 0.069; M -0.06 ± 0.094; H -0.033 ± 0.17; A -0.116 ± 0.11; I -0.249 ± 0.13
R28: C -0.047 ± 0.083; F -0.203 ± 0.23; I 0.029 ± 0.23; H -0.32 ± 0.16; Y -0.004 ± 0.2; S 0.024 ± 0.075; M 0.065 ± 0.14; D 0.128 ± 0.22; T -0.002 ± 0.14; K 0.139 ± 0.13; G -0.031 ± 0.066; A -0.005 ± 0.11; P -0.023 ± 0.1; Q 0.1 ± 0.11; E -0.177 ± 0.13; L -0.043 ± 0.079
Q24: S -0.008 ± 0.11; W -0.073 ± 0.099; C -0.025 ± 0.15; M 0.167 ± 0.15; T -0.08 ± 0.12; A -0.021 ± 0.086; V -0.086 ± 0.062; G 0.01 ± 0.055; H 0.08 ± 0.18; Y -0.045 ± 0.27; R 0.013 ± 0.063; N -0.022 ± 0.067; D -0.051 ± 0.17; I -0.038 ± 0.17; P 0.02 ± 0.13; K 0.068 ± 0.18; E 0.029 ± 0.13
C20: K -0.096 ± 0.24; L -0.01 ± 0.1; Y 0.3 ± 0.26; T 0.015 ± 0.1; P -0.486 ± 0.13; D 0.108 ± 0.14; N 0.042 ± 0.15; E 0.135 ± 0.095; W 0.056 ± 0.094; G 0.052 ± 0.05; M -0.04 ± 0.13; R 0.069 ± 0.052; I -0.047 ± 0.27; S -0.011 ± 0.088; V -0.061 ± 0.077; H -0.104 ± 0.19
C22: K -0.134 ± 0.13; A 0.002 ± 0.1; S 0.015 ± 0.069; P -0.104 ± 0.11; E 0.056 ± 0.079; V -0.08 ± 0.081; N -0.149 ± 0.17; M 0.091 ± 0.18; Q -0.023 ± 0.12; L -0.049 ± 0.096; H -0.07 ± 0.24; D 0.089 ± 0.32; G 0.019 ± 0.053; W -0.107 ± 0.086; Y -0.009 ± 0.15; R -0.044 ± 0.071; F 0.113 ± 0.23
R10: E 0.059 ± 0.14; N 0.077 ± 0.24; M -0.026 ± 0.12; Y -0.087 ± 0.18; F 0.025 ± 0.098; A -0.093 ± 0.057; V -0.005 ± 0.069; W -0.027 ± 0.1; D -0.118 ± 0.14; C 0.046 ± 0.12; S -0.138 ± 0.077; I 0.074 ± 0.21; K 0.226 ± 0.13; G -0.004 ± 0.064; Q -0.069 ± 0.14; T -0.034 ± 0.1; L -0.064 ± 0.096; P -1.07 ± 0.19
D25: G 0.041 ± 0.079; W -0.087 ± 0.1; N -0.197 ± 0.24; L 0.06 ± 0.095; C -0.308 ± 0.16; I -0.052 ± 0.19; A 0.005 ± 0.13; K 0.103 ± 0.33; R -0.045 ± 0.093; E 0.088 ± 0.13; V -0.051 ± 0.074; T -0.168 ± 0.31; Y -0.17 ± 0.12; P 0.073 ± 0.15; F -0.036 ± 0.14; M -0.149 ± 0.2; S -0.127 ± 0.092
G11: A 0.035 ± 0.073; P -0.521 ± 0.12; W -1.01 ± 0.18; S -0.1 ± 0.083; N -0.094 ± 0.16
R26: C 0.091 ± 0.12; G -0.018 ± 0.059; Q 0.032 ± 0.16; N 0.039 ± 0.23; H 0.008 ± 0.21; V -0.006 ± 0.054; Y 0.095 ± 0.22; F -0.292 ± 0.16; A -0.027 ± 0.092; M -0.007 ± 0.11; D -0.053 ± 0.12; S 0.05 ± 0.09; E 0.047 ± 0.082; P 0.071 ± 0.077; W 0.061 ± 0.089; T -0.048 ± 0.11
E18: R 0.048 ± 0.079; Q 0.054 ± 0.17; I -0.074 ± 0.1; W -0.142 ± 0.096; D -0.08 ± 0.15; N 0.11 ± 0.23; T -0.035 ± 0.088; L 0.001 ± 0.072; A -0.018 ± 0.057; G -0.088 ± 0.067; P -0.584 ± 0.14; S 0.04 ± 0.1; M -0.005 ± 0.15; C 0.05 ± 0.1; H 0.027 ± 0.31; V -0.004 ± 0.07
E15: D -0.166 ± 0.14; T -0.027 ± 0.13; F 0.015 ± 0.19; A -0.065 ± 0.11; M -0.013 ± 0.092; R -0.084 ± 0.059; S -0.11 ± 0.086; Y -0.135 ± 0.2; W -0.093 ± 0.074; N 0.206 ± 0.29; L -0.032 ± 0.075; P 0.038 ± 0.11; C 0.008 ± 0.18; K 0.204 ± 0.17; I -0.034 ± 0.23; V -0.118 ± 0.076; G -0.08 ± 0.061
M13: N -0.042 ± 0.18; L 0.002 ± 0.081; D 0.034 ± 0.14; W -0.127 ± 0.099; V 0.04 ± 0.08; T -0.122 ± 0.094; F 0.009 ± 0.17; C -0.176 ± 0.13; H 0.001 ± 0.17; G 0.017 ± 0.051; R -0.075 ± 0.073; A 0.08 ± 0.1; E -0.056 ± 0.16; Y -0.524 ± 0.27; S 0.061 ± 0.14; Q -0.115 ± 0.12; I -0.021 ± 0.15
Y9: Q 0.07 ± 0.11; S 0.175 ± 0.078; V -0.396 ± 0.073; M 0.064 ± 0.18; K 0.001 ± 0.19; R 0.204 ± 0.058; P -0.529 ± 0.12; T 0.179 ± 0.12; W 0.036 ± 0.066; N 0.217 ± 0.14
T17: S -0.022 ± 0.063; N -0.001 ± 0.25; R 0.074 ± 0.064; M -0.172 ± 0.16; V 0.005 ± 0.064; P 0.152 ± 0.082; I 0.073 ± 0.11; A -0.177 ± 0.071; K -0.061 ± 0.13; D -0.012 ± 0.14; F 0.08 ± 0.14; W -0.068 ± 0.099; Y 0.004 ± 0.22; Q -0.11 ± 0.11; G 0.016 ± 0.064; E -0.089 ± 0.095; L 0.001 ± 0.069; C 0.007 ± 0.14
F29: C 0.036 ± 0.15; N -0.064 ± 0.16; R 0.117 ± 0.11; E 0.05 ± 0.1; A 0.008 ± 0.089; I -0.112 ± 0.17; Q 0.041 ± 0.12; L -0.012 ± 0.077; H -0.066 ± 0.12; S 0.093 ± 0.082; P 0.069 ± 0.099; G -0.007 ± 0.056; D 0.008 ± 0.18
F16: A -0.1 ± 0.081; T -0.089 ± 0.12; I -0.077 ± 0.26; S 0.035 ± 0.068; W 0.143 ± 0.09; V 0.034 ± 0.071; G 0.035 ± 0.052; C -0.029 ± 0.12; Q 0.033 ± 0.13; M -0.115 ± 0.15; P 0.109 ± 0.09; Y -0.606 ± 0.42; N 0.095 ± 0.18; K -0.118 ± 0.1; L 0.08 ± 0.078; D -0.163 ± 0.11; R 0.082 ± 0.063; H 0.052 ± 0.31; E -0.018 ± 0.095
I14: V -0.001 ± 0.09; Y -0.018 ± 0.16; C -0.004 ± 0.1; G -0.092 ± 0.069; S 0.107 ± 0.1; A -0.401 ± 0.045; P -0.825 ± 0.18; M 0.086 ± 0.12; F 0.019 ± 0.26; N 0.056 ± 0.21; K -0.092 ± 0.13; T -0.018 ± 0.11; L -0.106 ± 0.087; W -0.09 ± 0.11; D 0.08 ± 0.18
S21: W -0.099 ± 0.085; F 0.017 ± 0.16; P -0.215 ± 0.14; T -0.047 ± 0.12; Q -0.246 ± 0.16; G -0.05 ± 0.064; K -0.045 ± 0.12; D 0.044 ± 0.16; V -0.044 ± 0.078; C -0.054 ± 0.13; E 0.069 ± 0.12; I 0.004 ± 0.27; A -0.023 ± 0.1; R -0.03 ± 0.075; M -0.171 ± 0.2; N -0.183 ± 0.31; H -0.088 ± 0.19; Y 0.069 ± 0.28
L23: H -0.833 ± 0.49; N -0.055 ± 0.18; W -0.215 ± 0.098; S 0.14 ± 0.067; K -0.033 ± 0.23; R -0.332 ± 0.061; C -0.023 ± 0.13; F -0.027 ± 0.15; G -0.24 ± 0.062; I -0.098 ± 0.15; T 0.004 ± 0.088; V -0.043 ± 0.082; P -0.029 ± 0.079; A 0.086 ± 0.074; Q -0.217 ± 0.11
